B1: EPB41L3 (parent)
chain: SELGDYDPDECGSDYISEFRFAPN
B2: ANKRD9 (parent)
chain: LLEDMRASEAFHWDERGRAAAYSP

Variants of: B1
Assay: protein stability index of a GFP-peptide fusion (GPS, HEK-293T) (PSI 1-6); higher = more stable
Details: c terminus: a fixed tail appended
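Further: lentivirally expressed fusions sorted by FACS into six bins by GFP to DsRed ratio, PSI derived from sequencing read proportions per bin multiplied by bin number.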

Protein stability index: each site, then its substitutions
P23: G 2.37 | Q 2.92 | W 2.47 | M 3.26 | V 2.53 | D 4 | H 2.44 | Y 2.89 | L 2.81 | K 2.68 | C 2.12 | E 4.66 | T 3.15 | F 2.96 | S 2.51 | R 1.53 | N 2.42 | I 2.7 | A 2.48
F19: Y 4.57 | R 4.78 | M 3.91 | A 4.66 | T 4.97 | H 4.85 | V 4.38 | W 2.61 | G 4.99 | N 5.06 | L 3.84 | K 4.83 | I 4.67 | S 5.13 | E 5.42 | P 4.97 | Q 5.04 | D 5.28 | C 4.68
R20: Y 3.75 | E 5.02 | T 4.18 | A 4.25 | P 4.81 | S 4.68 | K 4.53 | F 4.09 | I 3.75 | G 4.79 | M 3.92 | N 4.54 | W 3.92 | Q 4.7 | H 4.32 | C 4.56 | V 4.4 | L 4.02 | D 4.72
A22: H 2.13 | E 4.24 | G 4.21 | V 3.42 | C 2.59 | M 3.48 | D 4.92 | S 3.33 | I 2.24 | T 1.85 | P 4 | K 4.27 | Q 2.39 | L 3.73 | W 3.47 | Y 3.51 | R 4.12 | F 3.5 | N 3.46
F21: Q 4.97 | S 5.07 | E 4.78 | G 5.01 | C 4.69 | N 4.74 | T 4.87 | P 4.96 | Y 4.55 | H 4.17 | I 4.38 | D 4.68 | V 4.52 | L 4.61 | R 4.64 | A 4.75 | W 4.24 | M 4.43 | K 5.22
E18: Y 1.67 | Q 1.53 | S 2.15 | W 1.99 | R 2.11 | V 2.06 | P 1.66 | T 1.94
N24: R 2.44 | E 3.33 | A 2.6 | Q 2.09 | W 2.45 | F 2.25 | T 2.12 | K 1.69 | L 2.02 | I 2.55 | P 2.84 | C 1.64 | H 1.66 | S 1.87 | D 2.89 | G 2.33 | Y 2.15 | V 2.55 | M 1.79

Variants of: B2
Assay: as above
Details: c terminus: a fixed tail appended

Protein stability index: each site, then its substitutions
A10: P 3.58 | C 1.39 | M 1.94 | F 2.1 | K 1.97 | D 1.23 | N 1.54 | L 2.82 | V 1.5 | G 2.46 | E 1.81 | R 1.86 | T 2.44 | H 2.7 | W 1.94 | S 1.85
E3: S 1.43 | D 1.92 | T 2.31 | Q 2.38 | N 1.32 | K 2.49 | L 3.26 | A 2.72 | Y 1.55 | P 4.09 | I 1.85 | C 1.51 | H 2.19 | M 1.15 | F 2.08 | R 3.42
R6: N 2.97 | Y 2.43 | E 3.96 | S 2.9 | V 2.43 | A 3.56 | F 2.79 | P 3.27 | M 2.17 | I 2.32 | W 1.87 | C 3.6 | H 2.95 | D 4.03 | K 2.85 | T 2.5 | L 1.1
M5: P 4.09 | T 4.12 | W 3.64 | V 3.77 | E 4.66 | K 3.97 | A 3.92 | G 3.94 | H 3.39 | F 3.94 | N 4.1 | Q 3.91 | S 3.3 | L 1.6 | Y 3.83 | I 2.89
L1: T 4.04 | Q 4.37 | Y 3.54 | M 2.52 | F 3.36 | C 3.2 | D 4.18 | I 2.44 | W 3.01 | E 4.29 | P 4.77 | N 3.97 | H 4.71 | K 3.4 | V 2.91 | R 3.93 | A 3.72 | S 4.22
E9: W 1.32 | M 2.46 | T 2.96 | G 2.06 | V 2.19 | S 3 | Y 2.48 | H 3.31 | I 1.79 | K 3.29 | Q 4.46 | A 3.12 | L 1.89 | P 2.8 | R 2.77 | D 2.99 | F 2.32
D4: W 1.52 | L 1.64 | Y 1.9 | C 2.44 | K 2.37 | Q 2.14 | N 2.5 | I 2 | P 3.91 | F 2 | T 2.62 | M 1.44 | H 2.69 | A 2.36 | S 2.23 | E 2.03 | G 2.52 | V 2.19
S8: A 3.3 | V 2.82 | Q 3.91 | P 3.3 | I 1.95 | R 2.88 | F 3.31 | L 2.73 | N 4.13 | G 2.19 | C 2.5 | T 1.82 | Y 2.7 | M 3.04 | D 3.89 | H 3.13 | K 3.96 | W 3.13
A7: D 2.51 | G 3.01 | F 2.64 | S 1.78 | K 1.52 | I 1.96 | T 2.15 | M 2.34 | W 2.3 | Y 1.8 | Q 1.8 | E 1.27 | V 2.35 | L 2.19 | C 1.8 | H 3.62 | R 1.76 | P 4.21
H12: A 3.33 | K 2.5 | P 1.95 | R 2.2 | I 2.61 | C 3.35 | G 2.49 | V 1.34 | F 2.29 | E 1.83 | L 2.68 | T 2.21 | D 2.1 | M 1.68
F11: Y 2.03 | Q 2.32 | P 2.5 | G 3.23 | M 2.28 | T 2.5 | S 2.91 | I 1.78 | A 2.71 | D 3.58 | L 1.98 | K 3.72 | N 2.84 | R 2.87 | H 2.66 | E 1.74
W13: H 2.66 | D 2.24 | C 2.53 | A 2.16 | G 2.61 | K 2.93 | F 2.05 | E 2.06 | I 1.87
L2: C 4.06 | D 3.98 | P 4.37 | F 2.53 | A 3.15 | K 3.25 | M 2.67 | W 1.9 | R 3.27 | V 3.17 | G 3.74 | E 4.52 | S 3.94 | T 3.88 | Y 1.71 | Q 3.66 | H 4.13 | N 3.3 | I 4.67
